# What was measured:
# [1] = target: SARS-CoV-2 RBD, wild type (Sino Biological) (SARS-CoV-2) (UniProt P0DTC2); assay: BLI, affinity format: response at highest analyte concentration
# [2] = target: SARS-CoV-2 RBD, wild type (Sino Biological) (SARS-CoV-2) (UniProt P0DTC2); assay: BLI, avidity format: biotinylated RBD on SA sensor, binder in solution
# [3] = target: SARS-CoV-2 RBD, wild type (Sino Biological) (SARS-CoV-2) (UniProt P0DTC2); assay: BLI, affinity format: binder on AHC sensor, RBD in solution
# [4] = target: SARS-CoV-2 RBD, wild type (Sino Biological) (SARS-CoV-2) (UniProt P0DTC2); assay: BLI, avidity format: response at highest analyte concentration
substance,measurement,setting,value
Cilgavimab (antibody),Response,[1],0.397 nm shift
same,Kd,[2],0.21 nM
same,koff,[2],6.53e-05 s⁻¹
same,kon,[2],312000 M⁻¹ s⁻¹
same,Kd,[3],3.98 nM
same,koff,[3],0.00172 s⁻¹
same,kon,[3],434000 M⁻¹ s⁻¹
same,Response,[4],0.64 nm shift

# — patent US20230365956A1
